As usually defined, the Kd is the constant that tells how readily two partners part at equilibrium. A higher Kd goes with lower affinity.

From article PMC2074667 come the findings set out here.

Assay [1] deals with high-affinity cell-surface IFN-alpha receptor of human lung carcinoma cells (human (endogenous in PC9 and other lung carcinoma cell lines)). Kind of assay: radioligand binding; several lung carcinoma cell lines (lines not named) in suspension, room temperature, 2 h, 0.1-4 nM [125I]IFN-a; non-specific binding measured with 100-fold excess of unlabelled IFN-a; Scatchard analysis.

For assay [2] the target is unchanged. Kind of assay: radioligand binding; PC9 cells in suspension (200 ul of 5 x 10^6 cells/ml) incubated at room temperature for 2 h with 0.1-4 nM [125I]IFN-a; non-specific binding measured with 100-fold excess of unlabelled IFN-a; Scatchard analysis.

“Pure recombinant human IFN-alpha, labelled with 125I (from UniProt P01563 24-188) (ligand)”: the equilibrium dissociation constant (Kd) in assay [1] was 0.02 to 0.1 nM; in assay [2], 0.042 nM.
